B1: neutralizing antibody X10 (mouse monoclonal antibody) (antibody, V domains shown)
VH: EVQLQQSGPELVKPGASVKISCKTSGYTFTEYTLHWVKQSHGKSLEWIGGFDPNFGGATYNLKFEDKATLTVDKSSNTAYMELRSLTSEDSAVFYCARGDYGTSYAYFDFWGQGTTLTVSS
VL: DIVLTQSPASLAVSLGQRAAISCRASQSVSTSSHNYVHWYQQRPGQPPKLLIKYASNLECGVPARFSGSGSGTDFTLNIHPVEEEDSAAYYCQHSWEIPYTFGGGTKLEIK
notes: also called nAb X10; cluster 2 representative; source: mouse hybridoma, ascitic fluid, purified (protein A agarose)
B2: neutralizing antibody X17 (mouse monoclonal antibody) (antibody, V domains shown)
VH: QVQLQQSGAELARPGASVKLSCKASGYTFTFYWMQWLKQRPGQGLEWIGAIYPGDGDTRYTQRFKDKATLTADKSSSTAYIQLSSLASEDSAVYYCAGGEYDNYGFDYWGQGTTLTVSS
VL: DIQMTQTTSSLSASLGDRVTISCRASQDISNYLNWYQQKPDGTVKLLIYYTSRLHSGVPSRFSGSGSGTDYSLTISNLEQEDIATYFCQQGTTLPYTFGGGTKLEIK
notes: also called nAb X17; cluster 1 representative; source: mouse hybridoma, ascitic fluid, purified (protein A agarose)

Molecular target: T1, SARS-CoV-2 receptor-binding domain (RBD), recombinant antigen (SARS-CoV-2, UniProt P0DTC2)
T1 construct: source: bought: Wantai BioPharm (microplates precoated with recombinant RBD)
Assay: ELISA
Settings: both partners purified

Row | Binder | binding result
1 | B1 | binds
2 | B2 | binds
